Measurements as given in publication PMC12377726 (Proceedings of the National Academy of Sciences of the …, 2025).

B1: G001_gp1_V10_VRC01c_2021-0134 (antibody, V domains shown)
VH: QVQLVQSGAEVKKPGASVKVSCEASGYTFTGSYMHWVRQAPGQGLEWMGWINPNSGGTNYAQKFQGRVTMTRDTSITTAYMELSRLRSDDTAVYYCATRAAATNWYFDLWGRGTLVTVSS
VL: DIQMTQSPSSLSASVGDRVTITCQASQDINNHLNWYQQKPGKALKLLIYDASNLQTGVPSRFSGSGSGTDFTFTISSLQPEDIATYYCQQYEFFGGGTKVEIG
B2: G001_gp1_V10_VRC01c_2021-0135 (antibody, V domains shown)
VH: QVQLVQSGAEVKKPGASVKVSCKASGYTFTDYYMHWVRQAPGQGLEWMGWINPSSGGTNYAQKFQDWVTMTRDTSISTAYMELSRLRSDDTAVYYCATVAPAAATWGFDSWGQGTLVTVSS
VL: DIQTTQSPSSLSASVGDRVTITCQASQDISNHLNWYQQKPGKGPKLLIYDASNLKTGVPSRFSGSGSGTDFTFIISSLQPEDIATYYCQQYEFFGPGTKVDIK
B3: G001_gp1_V10_VRC01c_2021-0128 (antibody, V domains shown)
VH: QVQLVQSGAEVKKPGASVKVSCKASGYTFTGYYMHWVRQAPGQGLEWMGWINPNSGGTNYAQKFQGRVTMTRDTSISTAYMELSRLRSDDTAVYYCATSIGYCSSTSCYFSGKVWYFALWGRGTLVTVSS
VL: DIQMTQSPSSLSASVGDRVTITCQASQDISNYLNWYQQKPGKAPNLLIYDASNLETGVPSRFSGSGSGTDFTFTITSLQPEDIATYYCQQYETFGQGTNLEIK
B4: G001_gp1_V10_VRC01c_2021-0136 (antibody, V domains shown)
VH: QVQLVQSGAEVKKPGASVKVSCTASGYTFTGYYMHWVRQAPGQGLEWMGWINPNSGGTNYAQKFQGWVTMTRDTSINTAYMELSRLRSDDTAVYYCARARSGYSSGWYWAYWGQGTLVTVSS
VL: DIQMTQSPSSLSASVGDRVTITCQASQDISNHLNWYQQKPGKAPKLLIYDASNLETGVPSRFSGSGSGTDFTFTISSLQPEDIATYYCQQYEFFGGGTKVEIT
B5: G001_gp1_V10_VRC01c_2021-0137 (antibody, V domains shown)
VH: QVQLVQSGAEVKKPGASVKVSCKASGYTFTGYYMYWVRQAPGQGFEWMGWLNPNSGGTNYAQKFQGRVTMTRDTSISTAYMELSRLRSDDTAVYYCARVTSGSGWAFDYWGQGTLVTVSS
VL: DIQMTQSPSSLSASVGDRVTITCQASQDISNNLNWYQQKPGKAPKLLIYDVSNLETGVPSRFSGSGSGTDFTFTISSLQPEDIATYYCQQYGTFGGGTKVEIK
B6: G001_gp1_V10_VRC01c_2021-0132 (antibody, V domains shown)
VH: QVQLVQSGAEVKKPGASVKVSCQASGYTFTAYHMHWVRQAPGQGLEWMGWINPTSGGTNYAQKFQGRVTMTRDTSITTAYMDLTRLRSDDTAVYYCARHRGGWFFDLWGRGTLVTVSS
VL: DIQMTQSPSSLSASVGDRVTITCQASQDISNYLNWYQQKPGKAPNLLIYDASNLEAGVPSRFSGSGSGTDFTFTISSLQPEDIATYYCQQYETFGQGTKLEIR
B7: G001_gp1_V10_VRC01c_2021-0131 (antibody, V domains shown)
VH: QVQLVQSGAEVKKPGASVKVSCEASGYTFTDYYIHWVRQAPGQGLEWMGWINPSSGGTNYAQKFQGWVTMTRDTSISTAYMELSRLTSDDTAFYYCARGLGRQWEWGYWGQGTLVTVSS
VL: DIQMTQSPPSLSASVGDRVTITCQASQDISKYLNWYQQKAGKAPKLLIYDVSNLETGVPSRFSGSGSGTDFTFTISSLQPEDIATYYCQQYEFFGQGTRLEIK
B8: G001_gp1_V10_VRC01c_2021-0133 (antibody, V domains shown)
VH: QVQLVQSGPEVKKPGASVKVSCTASGFSFTGYYIHWLRQAPGPGLEWMGWINPNSGGTNYAQIFQDRVTMTRDTSISTAYMELSRLRSDDTAVYYCARVSVTTVWYFDLWGRGTLVTVSS
VL: DIQMTQSPSSLSASVGDRVTITCQASQDISNYLNWYQQKPGKAPKLLIYDVFNLETGVPSRFSGSGSGTDFTFTISSLQPEDIATYYCQQYETFGGGTKVEIK
B9: G001_gp1_V10_VRC01c_2021-0130 (antibody, V domains shown)
VH: QVQLVQSGAEVKKPGASVKVSCKASGYTFTGYYMHWVRQAPGQGLEWMGWINPKSGGTNYAQKFQDWVTMTRDTSISTAYMELSRLRSDDTAVYYCARARVEPGSSWLWGYWGQGTLVTVSS
VL: DIQMTQSPSSLSASVGDRVTITCQASQDISNYLNWYQQKPGKAPKLLIYDVSNLETGVPSRFSGSGSGTDFTFTISSLQPEDIATYYCQQYETFGGGTKVEIK
B10: G001_gp1_V10_VRC01c_179 (antibody, V domains shown)
VH: QVQLVQSGADVKKPGASVKVSCKASGYTFTDYYMHWVRQAPGQGLEWMGWINPNSGGTNYAQKFQDRVTMTRDTSVSTAYMEVSGLRSDDTAVYYCARIKLCNGGSCNWSLGYWGQGSLVTVSS
VL: DIQMTQSPSSLSASVGDRVTITCQASQDISNYLNWYQQKPGKAPKLLIYGASNLETGVPSRFSGSGSGTDFTFTISSLQPEDIATYYCQQYEFFGPGTKVDIK
notes: also called G001-179
B11: G001_LD_07A_VRC01c_58 (antibody, V domains shown)
VH: QVQLVQSGAEVRKPGASVKVSCKASGYTFTDYYIHWVRQAPGQGLEWMGWINPNSGGTNYAQKFQGWVTMTRDTSISTAHMELRRLRSDDRAVYYCARGVVHSGFEFGYWGQGTLVTVSS
VL: DIQMTQSPSTLSASVGDRVTITCRASQSISNWLAWYQQKPGKAPKLLIYKASSLESGVPSRFSGSGSGTEFTLTISSLQPDDFATYYCQQYETFGQGTKVEIK
notes: also called G001-58
B12: G001_LD_07A_VRC01c_59 (antibody, V domains shown)
VH: QVQLVQSGAEVKKPGTSVKVSCKASEYTFTGYYVHWVRQAPGQGLEWMGWINPNSGGTNYAQKFQGWVTMTRDTSISTAYMELSRLKSDDTAVYYCARSDYISSWYFGYWGQGTLVTVSS
VL: EIVMTQSPATLSVSPGERATLSCRASQSVSSNLAWYQQKPGQAPRLLIYGTSTRATGIPARFSGSGSGTEFTLTISSLQSEDFAVYYCQQYETFGQGTKVEIK
notes: also called G001-59
B13: G001_gp1_V10_VRC01c_2021-0087 (antibody, V domains shown)
VH: QVQLVQSGAEVKKPGASVKVSCKASGYTFTGNYIHWVRQAPGQGLEWVGWLNPNSGGTNYAQQFQGRVTMTRDTSISTAYMELNRLRSDDTAVFYCARGLWQWEFRYWGQGTLVTVSS
VL: DIVLTQSPGTLSLSPGERATLSCRASQSVSSSNLAWYQQKPGQAPRLLIYGASSRATGIPDRFSGSGSGTDFTLTISRLEPEDCAVYYCQQYEGFGGGTKVEIK
notes: also called G001-0087

What follows are binders tested against eOD-GT8 (engineered outer domain germline-targeting version 8), monomer (HIV-1 gp120 engineered outer domain, …) (assay: not given). Details: not given.

Question: Does B1 bind?
Answer: binds

Question: Does B2 bind?
Answer: binds

Question: Does B3 bind?
Answer: binds

Question: Does B4 bind?
Answer: binds

Question: Does B5 bind?
Answer: binds

Question: Does B6 bind?
Answer: binds

Question: Does B7 bind?
Answer: binds

Question: Does B8 bind?
Answer: binds

Question: Does B9 bind?
Answer: binds

The binders below were run against eOD-GT8 (engineered outer domain germline-targeting version 8), monomer (HIV-1 gp120 engineered outer domain, …) (assay: SPR). Details: both partners purified.

Question: B10 was tested. Which Kd did it give?
Answer: 0.13 nM

Question: How did the Kd turn out when B11 was run?
Answer: 0.437 nM

Question: B12 was tested. Which Kd did it give?
Answer: 1.76 nM

Question: How did the Kd turn out when B13 was run?
Answer: 0.15 nM
